Source: IntAct's records for PubMed 25416956

B1: EF-hand domain-containing protein 1 (Homo sapiens), Q5JVL4 (parent)
chain: MVSNPVHGLPFLPGTSFKDSTKTAFHRSQTLSYRNGYAIVRRPTVGIGGDRLQFNQLSQAELDELASKAPVLTYGQPKQAPPADFIPAHVAFDKKVLKFDAYFQEDVPMSTEEQYRIRQVNIYYYLEDDSMSVIEPVVENSGILQGKLIKRQRLAKNDRGDHYHWKDLNRGINITIYGKTFRVVDCDQFTQVFLESQGIELNPPEKMALDPYTELRKQPLRKYVTPSDFDQLKQFLTFDKQVLRFYAIWDDTDSMYGECRTYIIHYYLMDDTVEIREVHERNDGRDPFPLLMNRQRVPKVLVENAKNFPQCVLEISDQEVLEWYTAKDFIVGKSLTILGRTFFIYDCDPFTRRYYKEKFGITDLPRIDVSKREPPPVKQELPPYNGFGLVEDSAQNCFALIPKAPKKDVIKMLVNDNKVLRYLAVLESPIPEDKDRRFVFSYFLATDMISIFEPPVRNSGIIGGKYLGRTKVVKPYSTVDNPVYYGPSDFFIGAVIEVFGHRFIILDTDEYVLKYMESNAAQYSPEALASIQNHVRKREAPAPEAESKQTEKDPGVQELEALIDTIQKQLKDHSCKDNIREAFQIYDKEASGYVDRDMFFKICESLNVPVDDSLVKELIRMCSHGEGKINYYNFVRAFSN
partner: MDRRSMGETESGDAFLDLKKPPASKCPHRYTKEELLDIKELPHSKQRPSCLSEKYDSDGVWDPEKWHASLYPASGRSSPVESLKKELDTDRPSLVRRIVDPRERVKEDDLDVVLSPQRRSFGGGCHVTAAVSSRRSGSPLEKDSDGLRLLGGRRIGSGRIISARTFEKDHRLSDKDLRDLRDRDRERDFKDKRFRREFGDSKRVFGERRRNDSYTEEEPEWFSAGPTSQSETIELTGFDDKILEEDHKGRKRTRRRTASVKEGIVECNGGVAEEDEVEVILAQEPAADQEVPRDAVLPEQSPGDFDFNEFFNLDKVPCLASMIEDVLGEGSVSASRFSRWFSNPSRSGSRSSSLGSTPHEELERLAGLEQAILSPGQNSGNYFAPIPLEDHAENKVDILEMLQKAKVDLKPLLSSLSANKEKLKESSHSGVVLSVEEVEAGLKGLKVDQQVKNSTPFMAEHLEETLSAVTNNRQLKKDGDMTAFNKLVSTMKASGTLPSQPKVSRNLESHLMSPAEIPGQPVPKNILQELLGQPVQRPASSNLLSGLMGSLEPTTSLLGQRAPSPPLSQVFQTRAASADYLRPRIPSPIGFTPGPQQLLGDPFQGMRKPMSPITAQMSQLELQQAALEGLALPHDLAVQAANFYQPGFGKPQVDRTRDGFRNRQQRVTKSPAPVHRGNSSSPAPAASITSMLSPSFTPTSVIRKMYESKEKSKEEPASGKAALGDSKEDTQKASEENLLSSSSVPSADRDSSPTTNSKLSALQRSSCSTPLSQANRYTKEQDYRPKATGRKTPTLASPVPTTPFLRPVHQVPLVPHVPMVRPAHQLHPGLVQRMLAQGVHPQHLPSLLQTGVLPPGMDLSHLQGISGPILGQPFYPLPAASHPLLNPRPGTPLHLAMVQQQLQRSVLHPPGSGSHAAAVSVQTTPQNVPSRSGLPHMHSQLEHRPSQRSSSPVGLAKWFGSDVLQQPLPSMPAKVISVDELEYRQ
B2: Keratin, type II cytoskeletal 2 epidermal (Homo sapiens), P35908 (parent)
chain: MSCQISCKSRGRGGGGGGFRGFSSGSAVVSGGSRRSTSSFSCLSRHGGGGGGFGGGGFGSRSLVGLGGTKSISISVAGGGGGFGAAGGFGGRGGGFGGGSSFGGGSGFSGGGFGGGGFGGGRFGGFGGPGGVGGLGGPGGFGPGGYPGGIHEVSVNQSLLQPLNVKVDPEIQNVKAQEREQIKTLNNKFASFIDKVRFLEQQNQVLQTKWELLQQMNVGTRPINLEPIFQGYIDSLKRYLDGLTAERTSQNSELNNMQDLVEDYKKKYEDEINKRTAAENDFVTLKKDVDNAYMIKVELQSKVDLLNQEIEFLKVLYDAEISQIHQSVTDTNVILSMDNSRNLDLDSIIAEVKAQYEEIAQRSKEEAEALYHSKYEELQVTVGRHGDSLKEIKIEISELNRVIQRLQGEIAHVKKQCKNVQDAIADAEQRGEHALKDARNKLNDLEEALQQAKEDLARLLRDYQELMNVKLALDVEIATYRKLLEGEECRMSGDLSSNVTVSVTSSTISSNVASKAAFGGSGGRGSSSGGGYSSGSSSYGSGGRQSGSRGGSGGGGSISGGGYGSGGGSGGRYGSGGGSKGGSISGGGYGSGGGKHSSGGGSRGGSSSGGGYGSGGGGSSSVKGSSGEAFGSSVTFSFR
B3: Keratin, type II cytoskeletal 2 epidermal (Homo sapiens), P35908 (parent)
chain: B2 chain
partner: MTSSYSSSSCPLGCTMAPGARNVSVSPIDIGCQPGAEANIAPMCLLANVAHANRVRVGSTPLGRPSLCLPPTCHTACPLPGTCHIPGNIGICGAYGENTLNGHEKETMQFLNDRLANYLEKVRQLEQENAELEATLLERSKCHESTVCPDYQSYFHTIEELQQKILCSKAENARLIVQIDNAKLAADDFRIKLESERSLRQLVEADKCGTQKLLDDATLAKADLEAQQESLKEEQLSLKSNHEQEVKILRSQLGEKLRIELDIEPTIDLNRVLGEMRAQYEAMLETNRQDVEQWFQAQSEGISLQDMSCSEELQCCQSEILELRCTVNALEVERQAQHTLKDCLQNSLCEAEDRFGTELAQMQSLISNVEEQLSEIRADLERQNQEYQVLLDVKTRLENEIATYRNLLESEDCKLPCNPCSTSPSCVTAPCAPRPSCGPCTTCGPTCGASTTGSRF
B4: Forkhead box protein P3 (Homo sapiens), Q9BZS1 (parent)
chain: MPNPRPGKPSAPSLALGPSPGASPSWRAAPKASDLLGARGPGGTFQGRDLRGGAHASSSSLNPMPPSQLQLPTLPLVMVAPSGARLGPLPHLQALLQDRPHFMHQLSTVDAHARTPVLQVHPLESPAMISLTPPTTATGVFSLKARPGLPPGINVASLEWVSREPALLCTFPNPSAPRKDSTLSAVPQSSYPLLANGVCKWPGCEKVFEEPEDFLKHCQADHLLDEKGRAQCLLQREMVQSLEQQLVLEKEKLSAMQAHLAGKMALTKASSVASSDKGSCCIVAAGSQGPVVPAWSGPREAPDSLFAVRRHLWGSHGNSTFPEFLHNMDYFKFHNMRPPFTYATLIRWAILEAPEKQRTLNEIYHWFTRMFAFFRNHPATWKNAIRHNLSLHKCFVRVESEKGAVWTVDELEFRKKRSQRPSRCSNPTPGP
B5: Lipopolysaccharide-induced tumor necrosis factor-alpha factor (Homo sapiens), Q99732 (parent)
chain: MSVPGPYQAATGPSSAPSAPPSYEETVAVNSYYPTPPAPMPGPTTGLVTGPDGKGMNPPSYYTQPAPIPNNNPITVQTVYVQHPITFLDRPIQMCCPSCNKMIVSQLSYNAGALTWLSCGSLCLLGCIAGCCFIPFCVDALQDVDHYCPNCRALLGTYKRL
partner: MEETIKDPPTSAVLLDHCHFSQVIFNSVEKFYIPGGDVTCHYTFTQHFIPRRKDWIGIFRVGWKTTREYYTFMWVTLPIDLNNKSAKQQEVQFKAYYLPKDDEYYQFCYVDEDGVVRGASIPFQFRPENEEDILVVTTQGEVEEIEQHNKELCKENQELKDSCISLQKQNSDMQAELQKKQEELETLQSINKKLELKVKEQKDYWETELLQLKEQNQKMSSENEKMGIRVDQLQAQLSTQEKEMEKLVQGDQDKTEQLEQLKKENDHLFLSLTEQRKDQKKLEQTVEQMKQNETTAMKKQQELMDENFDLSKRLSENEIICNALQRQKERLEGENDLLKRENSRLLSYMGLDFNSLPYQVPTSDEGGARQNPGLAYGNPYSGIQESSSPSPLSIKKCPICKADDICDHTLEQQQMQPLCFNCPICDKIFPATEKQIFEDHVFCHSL
B6: X-linked retinitis pigmentosa GTPase regulator (Homo sapiens), Q92834 (parent)
chain: MREPEELMPDSGAVFTFGKSKFAENNPGKFWFKNDVPVHLSCGDEHSAVVTGNNKLYMFGSNNWGQLGLGSKSAISKPTCVKALKPEKVKLAACGRNHTLVSTEGGNVYATGGNNEGQLGLGDTEERNTFHVISFFTSEHKIKQLSAGSNTSAALTEDGRLFMWGDNSEGQIGLKNVSNVCVPQQVTIGKPVSWISCGYYHSAFVTTDGELYVFGEPENGKLGLPNQLLGNHRTPQLVSEIPEKVIQVACGGEHTVVLTENAVYTFGLGQFGQLGLGTFLFETSEPKVIENIRDQTISYISCGENHTALITDIGLMYTFGDGRHGKLGLGLENFTNHFIPTLCSNFLRFIVKLVACGGCHMVVFAAPHRGVAKEIEFDEINDTCLSVATFLPYSSLTSGNVLQRTLSARMRRRERERSPDSFSMRRTLPPIEGTLGLSACFLPNSVFPRCSERNLQESVLSEQDLMQPEEPDYLLDEMTKEAEIDNSSTVESLGETTDILNMTHIMSLNSNEKSLKLSPVQKQKKQQTIGELTQDTALTENDDSDEYEEMSEMKEGKACKQHVSQGIFMTQPATTIEAFSDEEVGNDTGQVGPQADTDGEGLQKEVYRHENNNGVDQLDAKEIEKESDGGHSQKESEAEEIDSEKETKLAEIAGMKDLREREKSTKKMSPFFGNLPDRGMNTESEENKDFVKKRESCKQDVIFDSERESVEKPDSYMEGASESQQGIADGFQQPEAIEFSSGEKEDDEVETDQNIRYGRKLIEQGNEKETKPIISKSMAKYDFKCDRLSEIPEEKEGAEDSKGNGIEEQEVEANEENVKVHGGRKEKTEILSDDLTDKAEDHEFSKTEELKLEDVDEEINAENVESKKKTVGDDESVPTGYHSKTEGAERTNDDSSAETIEKKEKANLEERAICEYNENPKGYMLDDADSSSLEILENSETTPSKDMKKTKKIFLFKRVPSINQKIVKNNNEPLPEIKSIGDQIILKSDNKDADQNHMSQNHQNIPPTNTERRSKSCTIL
partner: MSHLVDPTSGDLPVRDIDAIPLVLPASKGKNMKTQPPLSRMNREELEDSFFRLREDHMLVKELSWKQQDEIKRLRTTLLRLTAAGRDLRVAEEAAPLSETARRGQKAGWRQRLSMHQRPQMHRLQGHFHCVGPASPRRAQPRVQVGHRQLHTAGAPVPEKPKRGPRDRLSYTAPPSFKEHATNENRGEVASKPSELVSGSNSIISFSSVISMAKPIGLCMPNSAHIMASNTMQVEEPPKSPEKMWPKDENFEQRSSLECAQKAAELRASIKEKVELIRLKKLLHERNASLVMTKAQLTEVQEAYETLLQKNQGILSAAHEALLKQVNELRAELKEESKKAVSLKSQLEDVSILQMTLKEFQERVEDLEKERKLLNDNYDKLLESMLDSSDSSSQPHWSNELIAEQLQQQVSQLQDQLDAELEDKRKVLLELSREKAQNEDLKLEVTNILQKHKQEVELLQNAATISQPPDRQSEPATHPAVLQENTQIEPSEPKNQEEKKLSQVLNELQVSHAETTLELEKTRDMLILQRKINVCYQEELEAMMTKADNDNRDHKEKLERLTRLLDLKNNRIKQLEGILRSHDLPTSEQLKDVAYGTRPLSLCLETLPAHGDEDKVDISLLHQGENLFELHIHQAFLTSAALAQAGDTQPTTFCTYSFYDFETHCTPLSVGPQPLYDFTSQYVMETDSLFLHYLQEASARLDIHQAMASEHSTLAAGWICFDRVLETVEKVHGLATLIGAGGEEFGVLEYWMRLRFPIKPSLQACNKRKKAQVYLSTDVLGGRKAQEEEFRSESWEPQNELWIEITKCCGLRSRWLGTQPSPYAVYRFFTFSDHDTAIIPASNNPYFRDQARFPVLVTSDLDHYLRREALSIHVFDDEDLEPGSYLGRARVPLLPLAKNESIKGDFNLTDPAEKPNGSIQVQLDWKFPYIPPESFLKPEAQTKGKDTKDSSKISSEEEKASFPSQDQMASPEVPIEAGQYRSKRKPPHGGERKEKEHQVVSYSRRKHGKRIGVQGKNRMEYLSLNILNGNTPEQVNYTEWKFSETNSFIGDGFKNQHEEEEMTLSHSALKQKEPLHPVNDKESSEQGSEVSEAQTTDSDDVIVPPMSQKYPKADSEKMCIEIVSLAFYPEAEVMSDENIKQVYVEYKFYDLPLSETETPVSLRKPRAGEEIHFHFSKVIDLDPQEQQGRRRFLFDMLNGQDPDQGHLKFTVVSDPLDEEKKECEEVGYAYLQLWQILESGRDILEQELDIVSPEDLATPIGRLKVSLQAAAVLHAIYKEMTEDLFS

Variants of: B1
Conditions: with 4et_human EIF4ENIF1, Q9NRA8

Row | Variant | effect of a mutation on the interaction
1 | P77T | disrupting interaction

Variants of: B1
Conditions: with 4et_human EIF4ENIF1, Q9NRA8
Remark: another data set of the same source

Row | Variant | effect of a mutation on the interaction
2 | A394S | disrupting interaction

Variants of: B1
Conditions: with 4et_human EIF4ENIF1, Q9NRA8
Remark: another data set of the same source

Row | Variant | effect of a mutation on the interaction
3 | T508R | disrupting interaction

Variants of: B1
Conditions: with 4et_human EIF4ENIF1, Q9NRA8
Remark: another data set of the same source

Row | Variant | effect of a mutation on the interaction
4 | R221H | disrupting interaction

Variants of: B2
Conditions: with KRT19, P08727
KRT19, P08727, sequence (P08727 whole entry): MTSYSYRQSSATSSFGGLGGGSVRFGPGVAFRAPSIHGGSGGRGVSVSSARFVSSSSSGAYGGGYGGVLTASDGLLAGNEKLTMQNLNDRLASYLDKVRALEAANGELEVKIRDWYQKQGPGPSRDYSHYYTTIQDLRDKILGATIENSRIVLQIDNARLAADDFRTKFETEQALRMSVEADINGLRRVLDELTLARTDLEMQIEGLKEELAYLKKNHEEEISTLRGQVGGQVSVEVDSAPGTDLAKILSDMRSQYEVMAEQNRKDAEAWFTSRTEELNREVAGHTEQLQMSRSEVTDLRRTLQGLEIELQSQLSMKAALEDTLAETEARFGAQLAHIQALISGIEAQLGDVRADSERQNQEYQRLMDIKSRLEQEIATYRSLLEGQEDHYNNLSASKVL

Row | Variant | effect of a mutation on the interaction
5 | I477N | disrupting interaction

Variants of: B3
Conditions: with krt38_human KRT38, O76015

Row | Variant | effect of a mutation on the interaction
6 | I477N | disrupting interaction

Variants of: B4
Conditions: with pr20c_human PRR20C

Row | Variant | effect of a mutation on the interaction
7 | I363V | disrupting interaction

Variants of: B4
Conditions: with rbpms_human RBPMS

Row | Variant | effect of a mutation on the interaction
8 | I363V | disrupting interaction

Variants of: B4
Conditions: with pr20c_human PRR20C
Remark: another data set of the same source

Row | Variant | effect of a mutation on the interaction
9 | Q70H | disrupting interaction

Variants of: B4
Conditions: with rbpms_human RBPMS
Remark: another data set of the same source

Row | Variant | effect of a mutation on the interaction
10 | Q70H | disrupting interaction

Variants of: B5
Conditions: with caco2_human CALCOCO2, Q13137

Row | Variant | effect of a mutation on the interaction
11 | A111G | disrupting interaction

Variants of: B5
Conditions: with caco2_human CALCOCO2, Q13137
Remark: another data set of the same source

Row | Variant | effect of a mutation on the interaction
12 | G112S | disrupting interaction

Variants of: B6
Conditions: with rpgr1_human RPGRIP1, Q96KN7

Row | Variant | effect of a mutation on the interaction
13 | H98Q | disrupting interaction
